Source: US20190119358A1
*1 amine or outer side, *2 acyl side, *3 side chain or, on linkers, in order; H or OH if unused. Bridges are numbered along the chain shown (N, C = ends). Primed or numbered codes have the meaning given here. Where no end group is shown, it is not given here. [ ]: non-standard residue; d: D form. The star is where a group is joined. ξ: configuration not given here. DAPTZAC3 = (S)-3-(4-(3-acrylamidopropyl)-1H-1,2,3-triazol-1-yl)-2-aminopropanoic acid, C=CC(=O)NCCCc1cn(C[C@H](N[*:1])C(=O)[*:2])nn1; DAPTZAC2 = (S)-3-(4-(2-acrylamidoethyl)-1H-1,2,3-triazol-1-yl)-2-aminopropanoic acid, C=CC(=O)NCCc1cn(C[C@H](N[*:1])C(=O)[*:2])nn1; DAPTZAC1 = (S)-3-(4-(acrylamidomethyl)-1H-1,2,3-triazol-1-yl)-2-aminopropanoic acid, C=CC(=O)NCc1cn(C[C@H](N[*:1])C(=O)[*:2])nn1; ADTZPA″ = (S)-2-amino-3-(1-dodecyl-1H-1,2,3-triazol-4-yl)propanoic acid, CCCCCCCCCCCCn1cc(C[C@H](N[*:1])C(=O)[*:2])nn1; MORAC = (S)-5-acrylamido-2-(methylamino)pentanoic acid, C=CC(=O)NCCC[C@@H](C(=O)[*:2])N(C)[*:1]; DABAC1 = (S)-4-acrylamido-2-aminobutanoic acid, C=CC(=O)NCC[C@H](N[*:1])C(=O)[*:2]; m‑xylylene = m-xylylene thioether bridge between Cys; Trp(7-aza) = N[C@@H](Cc1c[nH]c2ncccc12)C(=O)O; NMePhe(4-F) = CN[C@@H](Cc1ccc(F)cc1)C(=O)O; ivDde = CC(C)CC(=C1C(=O)CC(C)(C)CC1=O)*; mXylylene = c1cc(C[*:1])cc(C[*:2])c1; Glutaryl = O=C(CCCC(=O)[*:2])[*:1]; dPhg = N[C@@H](C(=O)O)c1ccccc1; Chg = N[C@H](C(=O)O)C1CCCCC1; PEG4 = NCCOCCOCCOCCOCCC(=O)O; Phg = N[C@H](C(=O)O)c1ccccc1; Tle = CC(C)(C)[C@H](N)C(=O)O; ξPhg = NC(C(=O)O)c1ccccc1; NMeA = CN[C@@H](C)C(=O)O; Pra = C#CC[C@H](N)C(=O)O; Dab = NCC[C@H](N)C(=O)O; Nva = CCC[C@H](N)C(=O)O; Dap = NC[C@H](N)C(=O)O; PEG1 = NCCOCCC(=O)O; Ahx = NCCCCCC(=O)O; Sar = CNCC(=O)O

Target: GMPPNP-loaded H-Ras or GTP-loaded K-Ras
Test: FP competition, displacement of probe R4007 from Ras

Row | Binder | IC50 [nM]
1 | Ac-[Nva]SY[Tle]A[DAPTZAC2][NMeA][ξPhg][Trp(7-aza)]Y[NMePhe(4-F)][Sar]S-NH2 (also: places Phg, 7-azaTrp, NMe-4-F-Phe, Sar at 9, 10, 12, 13) [R4151] | 12200
2 | Ac-[Nva]CY[Tle]K(4‑(dimethylamino)benzoyl‑2,3,5,6‑d4)H[NMeA][Phg][Trp(7-aza)]Y[NMePhe(4-F)][Sar]C-NH2 (linker 2-13 via mXylylene) [R4150] | 7640
3 | Ac-[Nva]CY[Tle]KA[NMeA][dPhg][Trp(7-aza)]Y[NMePhe(4-F)][Sar]C-NH2 (linker 2-13 via mXylylene; SMILES CCC[C@H](NC(C)=O)C(=O)N[C@H]1CSCc2cccc(c2)CSC[C@@H](C(N)=O)NC(=O)CN(C)C(=O)[C@H](Cc2ccc(F)cc2)N(C)C(=O)[C@H](Cc2ccc(O)cc2)NC(=O)[C@H](Cc2c[nH]c3ncccc23)NC(=O)[C@@H](c2ccccc2)NC(=O)[C@H](C)N(C)C(=O)[C@H](C)NC(=O)[C@H](CCCCN)NC(=O)[C@H](C(C)(C)C)NC(=O)[C@H](Cc2ccc(O)cc2)NC1=O) [R4153] | 36400
4 | {Alexa Fluor 594}-[Nva]CY[Nva][Phg][NMePhe(4-F)]TP[Trp(7-aza)]C[Trp(7-aza)]EE-NH2 (linker 2-10 via m‑xylylene) [R4154] | 37400
5 | Ac-[Nva]CA[Tle]KH[NMeA][Phg][Trp(7-aza)]Y[NMePhe(4-F)][Sar]C-NH2 (linker 2-13 via mXylylene; SMILES CCC[C@H](NC(C)=O)C(=O)N[C@H]1CSCc2cccc(c2)CSC[C@@H](C(N)=O)NC(=O)CN(C)C(=O)[C@H](Cc2ccc(F)cc2)N(C)C(=O)[C@H](Cc2ccc(O)cc2)NC(=O)[C@H](Cc2c[nH]c3ncccc23)NC(=O)[C@H](c2ccccc2)NC(=O)[C@H](C)N(C)C(=O)[C@H](Cc2c[nH]cn2)NC(=O)[C@H](CCCCN)NC(=O)[C@H](C(C)(C)C)NC(=O)[C@H](C)NC1=O) [R4152] | 28300
6 | Ac-[Nva]SY[Tle]A[DAPTZAC3][NMeA][ξPhg][Trp(7-aza)]Y[NMePhe(4-F)][Sar]S-NH2 (also: places Phg, 7-azaTrp, NMe-4-F-Phe, Sar at 9, 10, 12, 13) [R4148] | 6000
7 | Ac-[Nva]CY[Tle]A[DABAC1][NMeA][Phg][Trp(7-aza)]Y[NMePhe(4-F)][Sar]C-NH2 (linker 2-13 via mXylylene; SMILES C=CC(=O)NCC[C@@H]1NC(=O)[C@H](C)NC(=O)[C@H](C(C)(C)C)NC(=O)[C@H](Cc2ccc(O)cc2)NC(=O)[C@@H](NC(=O)[C@H](CCC)NC(C)=O)CSCc2cccc(c2)CSC[C@@H](C(N)=O)NC(=O)CN(C)C(=O)[C@H](Cc2ccc(F)cc2)N(C)C(=O)[C@H](Cc2ccc(O)cc2)NC(=O)[C@H](Cc2c[nH]c3ncccc23)NC(=O)[C@H](c2ccccc2)NC(=O)[C@H](C)N(C)C1=O) [R4146] | 3390
8 | Ac-[Nva]CY[Tle]KH[NMeA][Phg][Trp(7-aza)]Y[NMePhe(4-F)][Sar]C[PEG4][ADTZPA″]-NH2 (linker 2-13 via mXylylene) [R4147] | 5190
9 | Ac-[Nva]CY[Tle]KH[NMeA][Chg][Trp(7-aza)]Y[NMePhe(4-F)][Sar]C-NH2 (linker 2-13 via mXylylene; SMILES CCC[C@H](NC(C)=O)C(=O)N[C@H]1CSCc2cccc(c2)CSC[C@@H](C(N)=O)NC(=O)CN(C)C(=O)[C@H](Cc2ccc(F)cc2)N(C)C(=O)[C@H](Cc2ccc(O)cc2)NC(=O)[C@H](Cc2c[nH]c3ncccc23)NC(=O)[C@H](C2CCCCC2)NC(=O)[C@H](C)N(C)C(=O)[C@H](Cc2c[nH]cn2)NC(=O)[C@H](CCCCN)NC(=O)[C@H](C(C)(C)C)NC(=O)[C@H](Cc2ccc(O)cc2)NC1=O) [R4149] | 6260

The next binders have a lower IC50 than those just listed; values first:

Row | IC50 [nM] | Binder
10 | 2800 | cyclo(Y[Tle]KH[NMeA][Phg][Trp(7-aza)]Y[NMePhe(4-F)][Sar][Pra]) (SMILES C#CC[C@@H]1NC(=O)CN(C)C(=O)[C@H](Cc2ccc(F)cc2)N(C)C(=O)[C@H](Cc2ccc(O)cc2)NC(=O)[C@H](Cc2c[nH]c3ncccc23)NC(=O)[C@H](c2ccccc2)NC(=O)[C@H](C)N(C)C(=O)[C@H](Cc2c[nH]cn2)NC(=O)[C@H](CCCCN)NC(=O)[C@H](C(C)(C)C)NC(=O)[C@H](Cc2ccc(O)cc2)NC1=O) [R4145]
11 | 2070 | Ac-[Nva]SY[Tle]A[DAPTZAC1][NMeA][ξPhg][Trp(7-aza)]Y[NMePhe(4-F)][Sar]S-NH2 [R4005]
12 | 1960 | Ac-[Nva]CY[Tle]K[dP][NMeA][Phg][Trp(7-aza)]Y[NMePhe(4-F)][Sar]C-NH2 (linker 2-13 via mXylylene; SMILES CCC[C@H](NC(C)=O)C(=O)N[C@H]1CSCc2cccc(c2)CSC[C@@H](C(N)=O)NC(=O)CN(C)C(=O)[C@H](Cc2ccc(F)cc2)N(C)C(=O)[C@H](Cc2ccc(O)cc2)NC(=O)[C@H](Cc2c[nH]c3ncccc23)NC(=O)[C@H](c2ccccc2)NC(=O)[C@H](C)N(C)C(=O)[C@H]2CCCN2C(=O)[C@H](CCCCN)NC(=O)[C@H](C(C)(C)C)NC(=O)[C@H](Cc2ccc(O)cc2)NC1=O) [R4144]
13 | 1640 | Ac-[Nva]CY[Tle]KH[NMeA]A[Trp(7-aza)]Y[NMeA][Sar]CGGGCVIM (linker 2-13 via mXylylene) [R4143]
14 | 1240 | Ac-[Nva]CY[Tle]AH[MORAC][Phg][Trp(7-aza)]Y[NMePhe(4-F)][Sar]C-NH2 (linker 2-13 via mXylylene; SMILES C=CC(=O)NCCC[C@H]1C(=O)N[C@@H](c2ccccc2)C(=O)N[C@@H](Cc2c[nH]c3ncccc23)C(=O)N[C@@H](Cc2ccc(O)cc2)C(=O)N(C)[C@@H](Cc2ccc(F)cc2)C(=O)N(C)CC(=O)N[C@H](C(N)=O)CSCc2cccc(c2)CSC[C@H](NC(=O)[C@H](CCC)NC(C)=O)C(=O)N[C@@H](Cc2ccc(O)cc2)C(=O)N[C@@H](C(C)(C)C)C(=O)N[C@@H](C)C(=O)N[C@@H](Cc2c[nH]cn2)C(=O)N1C) [R4142]
15 | 695 | Ac-[Nva]CY[Tle]A[Dap][NMeA][Phg][Trp(7-aza)]Y[NMePhe(4-F)][Sar]C-NH2 (linker 2-13 via mXylylene; SMILES CCC[C@H](NC(C)=O)C(=O)N[C@H]1CSCc2cccc(c2)CSC[C@@H](C(N)=O)NC(=O)CN(C)C(=O)[C@H](Cc2ccc(F)cc2)N(C)C(=O)[C@H](Cc2ccc(O)cc2)NC(=O)[C@H](Cc2c[nH]c3ncccc23)NC(=O)[C@H](c2ccccc2)NC(=O)[C@H](C)N(C)C(=O)[C@H](CN)NC(=O)[C@H](C)NC(=O)[C@H](C(C)(C)C)NC(=O)[C@H](Cc2ccc(O)cc2)NC1=O) [R4141]
16 | 608 | Ac-[Nva]CY[Tle]A[Dab][NMeA][Phg][Trp(7-aza)]Y[NMePhe(4-F)][Sar]C-NH2 (linker 2-13 via mXylylene; SMILES CCC[C@H](NC(C)=O)C(=O)N[C@H]1CSCc2cccc(c2)CSC[C@@H](C(N)=O)NC(=O)CN(C)C(=O)[C@H](Cc2ccc(F)cc2)N(C)C(=O)[C@H](Cc2ccc(O)cc2)NC(=O)[C@H](Cc2c[nH]c3ncccc23)NC(=O)[C@H](c2ccccc2)NC(=O)[C@H](C)N(C)C(=O)[C@H](CCN)NC(=O)[C@H](C)NC(=O)[C@H](C(C)(C)C)NC(=O)[C@H](Cc2ccc(O)cc2)NC1=O) [R4140]
17 | 522 | cyclo([PEG1]Y[Tle]KH[NMeA][Phg][Trp(7-aza)]Y[NMePhe(4-F)][Sar][Pra]) (SMILES C#CC[C@@H]1NC(=O)CN(C)C(=O)[C@H](Cc2ccc(F)cc2)N(C)C(=O)[C@H](Cc2ccc(O)cc2)NC(=O)[C@H](Cc2c[nH]c3ncccc23)NC(=O)[C@H](c2ccccc2)NC(=O)[C@H](C)N(C)C(=O)[C@H](Cc2c[nH]cn2)NC(=O)[C@H](CCCCN)NC(=O)[C@H](C(C)(C)C)NC(=O)[C@H](Cc2ccc(O)cc2)NC(=O)CCOCCNC1=O) [R4139]
18 | 461 | Glutaryl-[Nva]CY[Tle]K(ivDde)H[NMeA][Phg][Trp(7-aza)]Y[NMePhe(4-F)][Sar]C-NH2 (linker 2-13 via m‑xylylene) [R4138]
19 | 411 | cyclo([Ahx]Y[Tle]KH[NMeA][Phg][Trp(7-aza)]Y[NMePhe(4-F)][Sar][Pra]) (SMILES C#CC[C@@H]1NC(=O)CN(C)C(=O)[C@H](Cc2ccc(F)cc2)N(C)C(=O)[C@H](Cc2ccc(O)cc2)NC(=O)[C@H](Cc2c[nH]c3ncccc23)NC(=O)[C@H](c2ccccc2)NC(=O)[C@H](C)N(C)C(=O)[C@H](Cc2c[nH]cn2)NC(=O)[C@H](CCCCN)NC(=O)[C@H](C(C)(C)C)NC(=O)[C@H](Cc2ccc(O)cc2)NC(=O)CCCCCNC1=O) [R4137]
